Test results published in patent publication US7993884B2, “Beta-xylosidase for conversion of plant cell wall carbohydrates to simple sugars” (The United States of America as represented by the …, priority 2006, dated 2011).
Where “and” joins values, the source holds several entries; their conditions need not be identical. Equal values may be shown once. Read-outs that look alike come from different tables or passages of the source.

Experiments:
SXA [1] = molecular target: T1, SXA (Selenomonas ruminantium, UniProt O52575); test: biochemical
Excerpt: Concentrations of D-xylose produced versus time were fitted to lines for determination of initial rates. For determination of steady-state kinetic parameters, initial rates were fitted to Eq. 2 (competitive inhibition).

SXA [2] = molecular target: T1, SXA
Procedure: Samples (25 μL) were injected onto the column equilibrated with 0.1 M NaOH and developed with a 5-min linear gradient (0.1 M NaOH to 33 mM sodium acetate) at ˜25° C. and a flow rate of 1 mL min^−1.
Samples were kept on wet ice or the HPLC autosampler at 5° C. until analyzed by HPLC. Initial rates, calculated from linear regressions of the [D-xylose] produced versus time, were fitted to Eq. 1 to determine steady-state kinetic parameters.

SXA [3] = molecular target: T1, SXA; remark: listed apart in the source
Procedure: Samples (25 μL) were injected onto the column equilibrated with 0.1 M NaOH and developed with a 15-min linear gradient (0.1 M NaOH to 15 mM sodium acetate) at ˜25° C. and a flow rate of 1 mL min^−1.
Before (time=0 min) and after (time=1-6 min) initiating reactions with enzyme (7 μL), samples (0.05-0.1 mL) were removed and quenched with an equal volume of 0.5 M acetic acid and frozen. Following lyophilization, samples were dissolved in H2O and analyzed by HPLC. […] Results from two replicate reactions were combined to provide data points for the progress curves.
Before and after addition of enzyme (7 μL), 25-μl aliquots of the reaction mixtures were directly injected onto the HPLC column for quantification of product L-arabinose.

[4] = molecular target: T2, enzyme from Bacillus pumilus (Bacillus pumilus, UniProt P07129); settings: pH 7, 25° C.; cited from earlier work
T2 sequence (P07129 1-535): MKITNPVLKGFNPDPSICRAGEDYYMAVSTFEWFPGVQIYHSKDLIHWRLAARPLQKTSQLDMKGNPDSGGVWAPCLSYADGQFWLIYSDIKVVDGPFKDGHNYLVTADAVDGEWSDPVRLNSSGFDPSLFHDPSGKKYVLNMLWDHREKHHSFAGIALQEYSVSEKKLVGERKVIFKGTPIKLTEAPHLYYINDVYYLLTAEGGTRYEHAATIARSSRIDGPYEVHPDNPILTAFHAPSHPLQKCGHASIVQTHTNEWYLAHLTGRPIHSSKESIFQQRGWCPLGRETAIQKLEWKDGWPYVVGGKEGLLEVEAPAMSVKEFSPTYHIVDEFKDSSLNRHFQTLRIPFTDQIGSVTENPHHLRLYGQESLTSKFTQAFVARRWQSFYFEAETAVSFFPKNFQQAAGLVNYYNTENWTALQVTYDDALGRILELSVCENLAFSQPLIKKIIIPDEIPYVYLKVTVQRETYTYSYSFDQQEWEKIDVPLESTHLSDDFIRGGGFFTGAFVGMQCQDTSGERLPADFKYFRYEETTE

[5] = substrate: O=[N+]([O-])c1ccc(O[C@@H]2OC[C@@H](O)[C@H](O)[C@H]2O)cc1; test: purified protein, by the assay type; format: biochemical, Selenomonas ruminantium GA192; settings: other: pH 5.3, 25° C
Excerpt: Determination of Inhibition Constants

[6] = substrate: OC1OC[C@@H](O[C@@H]2OC[C@@H](O)[C@H](O)[C@H]2O)[C@H](O)[C@H]1O; test: purified protein, by the assay type; settings: other: 100 mM succinate-NaOH, pH 5.3, 25° C
[7] = substrate: OC[C@@H]1O[C@@H](OC[C@@H]2OC(O)[C@H](O)[C@H]2O)[C@H](O)[C@H]1O; test: purified protein, by the assay type; settings: other: 100 mM succinate-NaOH, pH 5.3, 25° C, pH 5.3
[8] = substrate: OC1OC[C@@H](O[C@@H]2OC[C@@H](O[C@@H]3OC[C@@H](O[C@@H]4OC[C@@H](O[C@@H]5OC[C@@H](O[C@@H]6OC[C@@H](O)[C@H](O)[C@H]6O)[C@H](O)[C@H]5O)[C@H](O)[C@H]4O)[C@H](O)[C@H]3O)[C@H](O)[C@H]2O)[C@H](O)[C@H]1O; test: purified protein, by the assay type; settings: for Km: other: 100 mM succinate-NaOH, pH 5.3, 25° C
[9] = substrate: O=[N+]([O-])c1ccc(O[C@@H]2OC[C@@H](O[C@@H]3OC[C@@H](O)[C@H](O)[C@H]3O)[C@H](O)[C@H]2O)cc1; test: purified protein, by the assay type; settings: other: 100 mM sodium phosphate, pH 7.0, 25° C, first step (4NPX2 to 4NPX+D-xylose), not well determined, pH 7.0
[10] = substrate: OC1OC[C@@H](O[C@@H]2OC[C@@H](O[C@@H]3OC[C@@H](O[C@@H]4OC[C@@H](O)[C@H](O)[C@H]4O)[C@H](O)[C@H]3O)[C@H](O)[C@H]2O)[C@H](O)[C@H]1O; test: purified protein, by the assay type; settings: other: 100 mM succinate-NaOH, pH 5.3, 25° C
[11] = substrate: OC1OC[C@@H](O[C@@H]2OC[C@@H](O[C@@H]3OC[C@@H](O)[C@H](O)[C@H]3O)[C@H](O)[C@H]2O)[C@H](O)[C@H]1O; test: purified protein, by the assay type; settings: for Km: other: 100 mM succinate-NaOH, pH 5.3, 25° C
[12] = substrate: O=[N+]([O-])c1ccc(O[C@@H]2O[C@@H](CO)[C@H](O)[C@H]2O)cc1; test: purified protein, by the assay type
Procedure: Kinetics with 4NP Substrates
(§1) Two methods were employed for determining initial rates. […] Initial rates were calculated from fitting the absorbance readings versus time to a line (minimum of 4 points per reaction progression) and by using an extinction coefficient of 17.4 mM^−1 cm^−1. In Method B (continuous monitoring), temperature-equilibrated reactions (1 mL) were monitored at 380 nm (for pH values below 6) or 400 nm (for pH values of 6 and above). Reactions were generally monitored 0.3 min for initial rate determinations. Delta extinction coefficients (product-substrate) used for molar conversion were determined by subtracting the absorbance of substrate (at pH 5 so even very minor contaminating 4NP would not contribute) from the absorbance of 4NP for each reaction condition. […] The concentration of 4NP substrates was determined by incubating the substrate with excess enzyme until an end point was reached, adding an aliquot (0.01 to 0.1 mL) to 0.1 M NaOH, recording the absorbance at 400 nm and using the extinction coefficient of 18.3 cm^−1mM^−1. Unless indicated otherwise, for both Methods A and B, reactions were initiated by adding a small aliquot of enzyme (generally 7 μl of enzyme diluted into 10 mM sodium phosphate, pH 7.0, and incubated on wet ice or at ˜25° C.) to the 1-mL, temperature-equilibrated (25° C.) reaction mixtures. For pH studies, buffers of constant ionic strength (I=0.3 M), adjusted with NaCl, were used as indicated: 100 mM succinate-NaOH (pH 4.3-6), 100 mM sodium phosphate (pH 6-8), 30 mM sodium pyrophosphate (pH 8-9), glycine-NaOH (pH 9) and glycylglycine-NaOH (pH 9).

[13] = substrate: O=[N+]([O-])c1ccc(O[C@@H]2OC[C@@H](O)[C@H](O)[C@H]2O)cc1; test: purified protein, by the assay type; settings: […]
Procedure: Kinetics with 4NP Substrates
as §1

[14] = substrate: OC1OC[C@@H](O[C@@H]2OC[C@@H](O[C@@H]3OC[C@@H](O[C@@H]4OC[C@@H](O[C@@H]5OC[C@@H](O)[C@H](O)[C@H]5O)[C@H](O)[C@H]4O)[C@H](O)[C@H]3O)[C@H](O)[C@H]2O)[C@H](O)[C@H]1O; test: purified protein, by the assay type; settings: other: 100 mM succinate-NaOH, pH 5.3, 25° C
[15] = substrate: O=[N+]([O-])c1ccc(O[C@@H]2O[C@@H](CO)[C@H](O)[C@H]2O)cc1; test: purified protein, by the assay type; format: biochemical, Selenomonas ruminantium GA192; settings: other: pH 5.3, 25° C
[16] = substrate: O=[N+]([O-])c1ccc(O[C@@H]2OC[C@@H](O)[C@H](O)[C@H]2O)cc1; test: purified protein, by the assay type; format: biochemical, Selenomonas ruminantium GA192; settings: other: untreated control SXA, pH 7.0, 25° C
SXA [17] = molecular target: T1, SXA; test: pH stability of SXA and protection from low pH inactivation at pH 4.0 by monosaccharides
Procedure: Buffers of constant ionic strength (I=0.3 M), adjusted with NaCl, were used as indicated: 100 mM succinate-NaOH (pH 3.5-6), 100 mM sodium phosphate (pH 6-8), 30 mM sodium pyrophosphate (pH 8-9), and 100 mM glycine-NaOH (pH 9-10). […] Initial rates were determined by monitoring reactions continuously at 400 nM for 0.3 min. […] Relative activity remaining data were fitted to equation 3, which describes a first order decay: A is the relative activity remaining at varied times of preincubation, A0 is the relative activity remaining at time zero of the preincubation, kobs is the first order rate constant, and t is the time of preincubation. Apparent affinities for D-xylose and D-glucose were determined by fitting kobs values from the monosaccharide protection studies to equation 4 where kobs is the observed first order rate constant for the decay, k0 is the first order rate constant in the absence of ligand (e.g., D-xylose), I is the ligand concentration in the preincubation mixture, and Ki is the dissociation constant of ligand from the enzyme-ligand complex.

SXA [18] = molecular target: T1, SXA; remark: listed apart in the source
Procedure: Initial rates were determined by monitoring reactions continuously at 400 nM for 0.3 min. […] Relative activity remaining data were fitted to equation 3, which describes a first order decay: A is the relative activity remaining at varied times of preincubation, A0 is the relative activity remaining at time zero of the preincubation, kobs is the first order rate constant, and t is the time of preincubation. Apparent affinities for D-xylose and D-glucose were determined by fitting kobs values from the monosaccharide protection studies to equation 4 where kobs is the observed first order rate constant for the decay, k0 is the first order rate constant in the absence of ligand (e.g., D-xylose), I is the ligand concentration in the preincubation mixture, and Ki is the dissociation constant of ligand from the enzyme-ligand complex.
Ligand protection studies contained varied concentrations of D-xylose or D-glucose in the pH 5.3 preincubation buffer at 55° C.

[19] = Isoelectric focusing of native SXA; format: physicochemical; settings: IEF pH 3-10 gel
[20] = same reaction conditions, pH 5.3, 25° C.
[21] = 4NP inhibition experiment, HPLC
[22] = other: pH 5.3, 25° C (Example 1), approximate, pH 5.3
[23] = other: 100 mM MES-NaOH, pH 6.00, 25° C, Method B, 50% sucrose, η/ηo 6.85, pH 6.0
[24] = other: 100 mM MES-NaOH, pH 6.00, 25° C, Method B, η/ηo 1.00, pH 6.0
[25] = other: 100 mM sodium phosphate, pH 7.0, 25° C, Method B, second step (4NPX to 4NP+D-xylose), pH 7.0
[26] = D-xylose α:β ratio 1:2.5 experiment
[27] = D-xylose α:β ratio 6:1 experiment

Molecule `O=[N+]([O-])c1ccc(O)cc1` [4NP, 4-nitrophenol] has a Ki (SXA [1]) of 6.28 ± 0.55 mM.

For `OC1OC[C@@H](O[C@@H]2OC[C@@H](O)[C@H](O)[C@H]2O)[C@H](O)[C@H]1O` (stereo partly drawn) [X2, 1,4-β-D-Xylobiose], the pH-independent kcat (SXA [2]) was 172±2, the Km (SXA [2]; 100 mM succinate-NaOH, pH 5.3, 25° C., improved quench (Example 3)) was 2060 ± 80 µM and the “pKa of kcat versus pH (single group)” value (SXA [2]; Eq. 5, I=0.3 M, 25° C.) was 7.57±0.03. The “pKa1 of kcat/Km versus pH” value (SXA [2]; Eq. 6, I=0.3 M, 25° C.) was 4.86±0.06, the “pKa2 of kcat/Km versus pH” value (SXA [2]; Eq. 6, I=0.3 M, 25° C.) was 7.01±0.05 and the “pKa1 of 1/Km versus pH” value (SXA [2]; Eq. 7, I=0.3 M, 25° C.) was 4.78±0.11. For the same molecule, the “pKa2 of 1/Km versus pH” value (SXA [2]; Eq. 7, I=0.3 M, 25° C.) was 7.03±0.17, the “factor by which kcat of SXA is higher than that of the Bacillus pumilus enzyme” value (SXA [2]; SXA pH 5.3, 25° C. vs B. pumilus pH 7.15, 25° C.) was 10 and the “lower affinity of dianionic SXA (D14^−E186^−) than monoanionic SXA (D14^−E186^H)” value (SXA [2]; from pH dependencies of 1/Km) was 2.9 fold and 3 fold. For the same molecule, the “pH-independent kcat/Km” value (SXA [2]; kcat/Km versus pH, Eq. 6, I=0.3 M, 25° C. (FIG. 19)) was 123±5, the “kcat lower than previous determination (Example 1)” value (SXA [2]; pH 5.3, 25° C.) was 55% and the “kcat/Km lower than previous determination (Example 1)” value (SXA [2]; pH 5.3, 25° C.) was 9%. For the same molecule, the Km (SXA [3]; 100 mM succinate-NaOH, pH 5.3, 25° C. (Example 1)) was 4200 µM, the “dissociation constant for the transition state” value (SXA [3]; assuming noncatalyzed rate similar to a-methylglucopyranoside) was ~10^−19 and the “time of peak height of intermediate product, observed” value (SXA [3]; hydrolysis of X4, pH 5.30, 25° C.) was 2940 s. The “time of peak height of intermediate product, observed” value (SXA [3]; hydrolysis of X6, pH 5.30, 25° C.) was 13384 s, the relative kcat values (SXA [3]; pH 5.3 and 25° C., relative to A2) was 5600 and the “kcat, fold larger than with 4NPX” value (SXA [3]; [20]) was 12 fold and 13 fold. The “kcat/Km, fold larger than with 4NPX” value (SXA [3]; [20]) was 2 fold and the “kcat, Bacillus pumilus enzyme” value [4] was 18 s⁻¹.

B1: Selenomonas ruminantium GA192 β-D-xylosidase (SXA), wild type, SEQ ID NO: 2 (Pseudoselenomonas ruminantium) (protein)
chain: MNIQNPVLKGFNPDPSIVRAGDDYYIATSTFEWFPGVQIHHSKDLVHWHLVAHPLSTTEFLDMKGNPDSGGIWAPDLSYADGKFWLIYTDVKVVDGMWKDCHNYLTTAEDIKGPWSKPILLNGAGFDASLFHDPSGKKYLVNMYWDQRVYHHNFYGIALQEYSVAEEKLIGKPEIIYKGTDIAYTEGPHLYYINDMYYLMTAEGGTTYQHSETIARSKTIHGPYEIQPDYPLLSAWKEVHNPLQKCGHASLVETQNGQWYLAHLTGRPLPAPAGFPSREREQHAFCPLGRETAIQKIEWQDGWPVVVGGQQGSLEVEAPDLPQQEWAPTYEERDDFDKDTLNINFQTLRIPFSEHLGSLTARPGFLRLYGRESLQSKFTQAHIARRWQSFNFDAGTSVEFSPNSFQQMAGLTCYYNTENWSSIHVTWNEEKGRIIDLVTADNGTFSMPLAGAEIPIPDEVKTVHFKVSVRGRIYQYAYSFDGETFHTLPIELPSWKLSDDYVRGGGFFTGAFVGINAIDITGTALPADFDYFTYKELD
Molecule B1 has a Km [5, 21] of 758 ± 59 µM, a kcat [5, 21] of 26.7 ± 1.1 s⁻¹ and a Km ([5]; D-xylose inhibition experiment) of 716 ± 32 µM. For the same molecule, the kcat ([5]; D-xylose inhibition experiment) was 32.1 ± 0.5 s⁻¹, the Km [6] was 2060 ± 80 µM and the Km ([6]; pH 5.3) was 4200 ± 500 µM. For the same molecule, the Km [7] was 1200 ± 100 µM, the Km [8] was 3120 ± 210 µM and the Km ([8]; pH 5.3) was 2700 ± 500 µM. It also gave a kcat [8, 22] of 100 s⁻¹, a Km [9] of 690 ± 430 µM and a kcat [9] of 50.5 ± 25.7 s⁻¹. It also gave a Km [10] of 2750 ± 230 µM, a Km ([10]; pH 5.3) of 4000 ± 300 µM and a Km [11] of 2120 ± 100 µM. It also gave a Km ([11]; pH 5.3) of 3800 ± 600 µM, a kcat [11, 22] of 170 s⁻¹ and a Km [12, 23] of 754 ± 101 µM. The Km [12, 24] was 745 ± 36 µM, the Km ([12]; other: 100 mM succinate-NaOH, pH 5.3, 25° C, Method A, no sucrose, pH 5.3) was 810 ± 50 µM and the kcat ([12]; other: pH profile, I=0.3 M, Method B) was 3.25 ± 0.05 s⁻¹. For the same molecule, the Km [13, 23] was 637 ± 81 µM, the Km [13, 24] was 699 ± 35 µM and the Km [13, 25] was 443 ± 8 µM. It also gave a kcat [13, 25] of 16.2 ± 0.09 s⁻¹, a Km ([13]; other: pH 5.3, 25° C, Method A, 50% sucrose, η/ηo 6.12, pH 5.3) of 690 ± 35 µM and a Km [14] of 2860 ± 380 µM. For the same molecule, the Km ([14]; pH 5.3) was 3700 ± 600 µM, the Km [15, 26] was 900 ± 13 µM and the kcat [15, 26] was 2.79 ± 0.01 s⁻¹. It also gave a Km [15, 27] of 880 ± 130 µM, a kcat [15, 27] of 2.78 ± 0.01 s⁻¹ and a Km [16] of 380 ± 5 µM. For the same molecule, the kcat [16] was 12.2 ± 0.05 s⁻¹.

B2: SXA: β-D-xylosidase (E.C. 3.2.1.37) of Selenomonas ruminantium GA192, glycoside hydrolase family 43, GenBank AAB97967, SEQ. ID No. 2 (protein)
chain: B1 chain
modifications: selenomonas ruminantium
For B2, the “pH below which SXA is unstable” value (SXA [17]) was “below 4.1”, the “kobs, first-order inactivation rate constant of SXA” value (SXA [17]; pH 4.0, 25° C., absence of monosaccharide (0 mM)) was 0.0784 ± 0.0023 min⁻¹ and 0.0518 ± 0.0037 min⁻¹ and the “temperature up to which the enzyme is stable” value (SXA [18]) was “up to 55 °C”. For the same molecule, the “kobs, first-order inactivation rate constant of SXA” value (SXA [18]; pH 5.3, 55° C., absence of monosaccharide (0 mM)) was 0.0252 ± 0.0020 min⁻¹ and 0.0256 ± 0.0015 min⁻¹ and the isoelectric point [19] was “approximately 4.4”.
